From patent publication US20110020361A1 (GOVERNMENT OF THE UNITED STATES OF AMERICA AS REPRESENTED …, published 2011)

Target: T1, recombinant human mesothelin (amino acids 296-600 of SEQ ID NO: 4) (human, UniProt Q13421 296-600)
T1 construct: Secreted from SF9 insect cells (baculovirus vector pAcGP67) and purified by nickel column and gel filtration; It was coated on ELISA plates and, biotin-labelled, used for panning; also called recombinant mesothelin; purified mesothelin
Test: ELISA, recombinant mesothelin coated on plate, anti-FLAG-HRP detection
Experimental: Antigen (mesothelin) diluted in PBS was coated on narrow-well 96-well plates at 50 ng/well overnight at 4° C. Wells were blocked with 100 μl of 4% milk/PBS (MPBS) for 1 hour at 37° C. […] Fifty μl of diluted Fab was added to duplicate wells. For competition ELISA, designated concentrations of competing IgG were included in all Fab solutions. After 2 hours of incubation at 37° C., the wells were washed with PBST (PBS+0.05% Tween 20) 4 times. […] Wells were washed again with PBST. Substrate ABTS was added (50 μl/well), and the reaction was read at A405 nm. For ELISA with IgG, a goat anti-human Fc IgG conjugated with HRP was used at 1:1000.

B1: Fab m912 (Fab, V domains shown)
VH: QVQLQESGPGLVKPSETLSLTCTVSGGSVSSGSYYWSWIRQPPGKGLEWIGYIYYSGSTNYNPSLKSRVTISVDTSKNQFSLKLSSVTAADTAVYYCAREGKNGAFDIWGQGTMVTVSS
VL: not shown
notes: Human Fab from a naive Fab phage library, expressed in E. coli HB2151; also called clone m912; mesothelin-specific antibody m912
- EC50: 20 nM
